Columns and labels:
Test in all cases: pulldown
Conditions in all cases: 20 nM protein, 1.5 uM RNA pool; 20 mM HEPES pH 7.8, 70 mM KCl, 10 mM NaCl, 10% glycerol, 2 mM DTT, 0.1 ug/uL BSA; 30 min, 4 C
[1] = biological target: T1, SCHCODRAFT_72118 N130T;T236A;D255N (Schizophyllum commune) (UniProt A0ACF2F787)
T1 sequence: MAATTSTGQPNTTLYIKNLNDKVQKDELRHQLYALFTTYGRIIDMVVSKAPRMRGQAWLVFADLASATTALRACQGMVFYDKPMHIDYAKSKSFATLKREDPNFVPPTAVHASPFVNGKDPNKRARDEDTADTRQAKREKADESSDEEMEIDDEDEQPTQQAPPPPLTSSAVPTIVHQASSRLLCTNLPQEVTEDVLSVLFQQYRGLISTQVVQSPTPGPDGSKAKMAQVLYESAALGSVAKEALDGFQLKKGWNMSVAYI

[2] = biological target: T2, LmjF.29.1340 (Leishmania major) (UniProt E9ADZ3)
T2 sequence: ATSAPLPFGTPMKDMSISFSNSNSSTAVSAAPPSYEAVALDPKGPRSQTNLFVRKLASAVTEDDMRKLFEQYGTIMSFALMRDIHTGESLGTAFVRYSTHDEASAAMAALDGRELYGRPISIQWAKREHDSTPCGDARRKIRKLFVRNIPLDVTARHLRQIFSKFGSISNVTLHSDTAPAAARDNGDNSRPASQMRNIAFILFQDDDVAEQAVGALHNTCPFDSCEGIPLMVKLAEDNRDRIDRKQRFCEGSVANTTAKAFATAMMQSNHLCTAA

[3] = biological target: T3, SCHCODRAFT_35516 S109T;I250V (Schizophyllum commune) (UniProt A0ACF2EGB7)
T3 sequence: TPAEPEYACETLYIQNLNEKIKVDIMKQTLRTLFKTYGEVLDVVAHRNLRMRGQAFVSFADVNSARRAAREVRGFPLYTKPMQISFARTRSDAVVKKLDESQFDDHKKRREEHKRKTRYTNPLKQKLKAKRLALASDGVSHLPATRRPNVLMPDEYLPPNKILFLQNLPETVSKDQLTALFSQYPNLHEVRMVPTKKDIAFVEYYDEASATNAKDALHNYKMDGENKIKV

[4] = biological target: T4, ENSMODG00000011916 (Monodelphis domestica) (UniProt F7E028)
T4 sequence: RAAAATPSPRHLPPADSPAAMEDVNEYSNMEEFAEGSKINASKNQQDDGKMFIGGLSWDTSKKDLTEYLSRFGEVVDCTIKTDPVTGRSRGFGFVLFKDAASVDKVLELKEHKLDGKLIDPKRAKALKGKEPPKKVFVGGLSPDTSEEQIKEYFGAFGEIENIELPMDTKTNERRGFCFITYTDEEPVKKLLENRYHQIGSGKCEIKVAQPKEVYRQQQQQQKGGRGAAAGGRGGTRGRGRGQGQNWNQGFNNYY

[5] = biological target: T5, NEMVEDRAFT_v1g141408 (Nematostella vectensis) (UniProt A7T170)
T5 sequence: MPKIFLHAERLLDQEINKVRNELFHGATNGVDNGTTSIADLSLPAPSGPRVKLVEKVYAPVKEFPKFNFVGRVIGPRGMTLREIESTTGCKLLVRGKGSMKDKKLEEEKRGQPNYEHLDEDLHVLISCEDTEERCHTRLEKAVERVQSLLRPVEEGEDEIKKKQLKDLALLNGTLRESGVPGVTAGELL

[6] = biological target: T6, Tb10.389.1650 (Trypanosoma brucei) (UniProt Q389D4)
T6 sequence: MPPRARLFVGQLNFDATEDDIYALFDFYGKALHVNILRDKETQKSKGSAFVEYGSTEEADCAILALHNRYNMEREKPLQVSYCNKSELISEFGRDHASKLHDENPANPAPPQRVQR

[7] = biological target: T7, LmjF.29.1350 (Leishmania major) (UniProt E9ADZ4)
T7 sequence: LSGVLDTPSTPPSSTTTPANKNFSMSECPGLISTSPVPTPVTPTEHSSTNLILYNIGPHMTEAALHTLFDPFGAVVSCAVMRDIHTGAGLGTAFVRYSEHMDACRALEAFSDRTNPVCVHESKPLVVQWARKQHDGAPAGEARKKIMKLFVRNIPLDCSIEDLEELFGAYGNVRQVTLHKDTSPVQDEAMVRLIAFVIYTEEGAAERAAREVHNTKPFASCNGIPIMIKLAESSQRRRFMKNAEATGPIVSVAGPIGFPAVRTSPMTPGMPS

DDX53 (Homo sapiens) = DDX53 (Homo sapiens) (UniProt Q86TM3)
[8] = biological target: T8, PK10695.1 (Cannabis sativa) (UniProt A0A803NZQ3)
T8 sequence: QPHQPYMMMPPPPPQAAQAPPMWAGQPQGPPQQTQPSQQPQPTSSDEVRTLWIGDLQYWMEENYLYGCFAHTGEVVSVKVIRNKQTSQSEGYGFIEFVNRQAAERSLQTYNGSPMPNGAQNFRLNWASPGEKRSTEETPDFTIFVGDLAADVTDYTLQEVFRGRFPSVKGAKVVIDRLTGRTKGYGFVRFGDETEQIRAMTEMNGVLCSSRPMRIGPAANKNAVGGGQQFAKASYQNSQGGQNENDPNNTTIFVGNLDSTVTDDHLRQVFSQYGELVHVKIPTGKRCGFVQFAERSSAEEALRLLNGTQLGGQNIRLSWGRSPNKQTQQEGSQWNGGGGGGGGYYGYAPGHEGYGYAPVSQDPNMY

Sequence of DDX53 (Homo sapiens) (Q86TM3 whole entry): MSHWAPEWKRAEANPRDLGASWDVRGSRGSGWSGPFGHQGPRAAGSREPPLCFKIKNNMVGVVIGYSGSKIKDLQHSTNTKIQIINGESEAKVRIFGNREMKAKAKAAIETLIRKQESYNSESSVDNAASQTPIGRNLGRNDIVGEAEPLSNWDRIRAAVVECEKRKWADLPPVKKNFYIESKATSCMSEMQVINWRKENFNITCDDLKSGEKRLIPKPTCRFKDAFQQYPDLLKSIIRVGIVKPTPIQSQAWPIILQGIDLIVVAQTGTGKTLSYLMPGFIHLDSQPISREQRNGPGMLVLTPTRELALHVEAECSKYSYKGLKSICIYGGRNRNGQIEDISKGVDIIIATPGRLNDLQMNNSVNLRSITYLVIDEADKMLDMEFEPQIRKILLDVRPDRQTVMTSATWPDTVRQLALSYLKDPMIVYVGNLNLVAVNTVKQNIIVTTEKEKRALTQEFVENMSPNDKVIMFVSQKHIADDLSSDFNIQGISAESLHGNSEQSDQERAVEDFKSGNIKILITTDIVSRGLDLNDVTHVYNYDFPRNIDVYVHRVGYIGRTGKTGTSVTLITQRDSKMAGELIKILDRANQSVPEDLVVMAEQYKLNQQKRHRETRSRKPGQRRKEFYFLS

With UGCACA [RNAcompete motif RNCMPT00723] the binding signal (z-score (mean of top ten 7-mers)) [1] was 8.86.
In the case of CAUAGU [RNAcompete motif RNCMPT00712], the binding signal (z-score (mean of top ten 7-mers)) [2] is reported as 16.4.
Work on UAGCACA [RNAcompete motif RNCMPT00725] yielded a binding signal (z-score (mean of top ten 7-mers)) [3] of 10.8.
In the case of AGAUAAA [RNAcompete motif RNCMPT00707], the binding signal (z-score (mean of top ten 7-mers)) [4] is reported as 8.36.
Sequence ACUAAC [RNAcompete motif RNCMPT00718] has a binding signal (z-score (mean of top ten 7-mers)) [5] of 18.9.
With UUUGCU [RNAcompete motif RNCMPT00732] the binding signal (z-score (mean of top ten 7-mers)) [6] was 18.9.
Work on CAUAGU [RNAcompete motif RNCMPT00713] yielded a binding signal (z-score (mean of top ten 7-mers)) [7] of 24.5.
AGAAUAA [RNAcompete motif RNCMPT00743] was tested, and the binding signal (z-score (mean of top ten 7-mers)) (DDX53 (Homo sapiens)) was 6.26.
For UUUAUUUU [RNAcompete motif RNCMPT00741], the binding signal (z-score (mean of top ten 7-mers)) [8] was 10.2.

Source: article PMC12990809
